Experimental data reported in US20220204609A1 (SHANDONG BOAN BIOTECHNOLOGY, published 2022).
Changes are numbered by the printed parent chain. Values belong to the binder of their own block, whether it stands above or below them.

Experiments:
[1] = molecular target: T1, Claudin18.2 on cells (human, UniProt P56856-2 1-261); experiment: flow cytometry on 293T-Claudin18.2 cells, antibody at 1.5 µg/mL
T1 construct: whole, on cells; the cell line of each result is named under assay or readout

[2] = molecular target: T1, Claudin18.2 on cells; experiment: flow cytometry on 293T-Claudin18.2 cells, antibody at 3 µg/mL
[3] = molecular target: T1, Claudin18.2 on cells; experiment: cell-based or functional assay
[4] = molecular target: T1, Claudin18.2 on cells; experiment: flow cytometry on NUGC4 cells, antibody at 3 µg/mL
[5] = molecular target: T1, Claudin18.2 on cells; experiment: flow cytometry on NUGC4 cells, antibody at 1.5 µg/mL
[6] = molecular target: T1, Claudin18.2 on cells; experiment: flow cytometry on 293T-Claudin18.2 cells, antibody at 0.375 µg/mL
[7] = molecular target: T1, Claudin18.2 on cells; experiment: flow cytometry on NUGC4 cells, antibody at 0.75 µg/mL
[8] = molecular target: T1, Claudin18.2 on cells; experiment: flow cytometry on 293T-Claudin18.2 cells, antibody at 0.75 µg/mL
[9] = molecular target: T2, Human CD32b (human, UniProt P31994 43-217, limits assumed); experiment: BLI (Octet RED 96), Human CD32b on streptavidin biosensor, steady state analysis
T2 sequence (looked up): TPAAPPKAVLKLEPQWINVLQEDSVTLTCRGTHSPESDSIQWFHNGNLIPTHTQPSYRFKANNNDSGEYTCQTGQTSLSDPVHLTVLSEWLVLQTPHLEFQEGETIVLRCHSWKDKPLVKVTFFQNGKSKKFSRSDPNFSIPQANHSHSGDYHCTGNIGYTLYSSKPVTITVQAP

[10] = molecular target: T3, Human CD16a(F) (Sino Biological, 10389-H27H-B) (human, UniProt P08637 17-208); experiment: BLI; KD of CLDQMIX-CA808.1-IgG1 against KD of CLDQMIX-CA808.1-IgG1 VLPLL
T3 construct: Loaded on streptavidin biosensors
T3 sequence (P08637 17-208 limits assumed): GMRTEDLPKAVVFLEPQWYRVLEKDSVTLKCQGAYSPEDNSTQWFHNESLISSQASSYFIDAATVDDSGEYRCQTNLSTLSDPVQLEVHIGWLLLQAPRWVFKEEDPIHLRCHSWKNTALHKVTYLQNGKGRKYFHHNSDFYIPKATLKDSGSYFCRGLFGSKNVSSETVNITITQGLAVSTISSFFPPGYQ

[11] = molecular target: T4, Human CD16a(V) (Sino Biological, 10389-H27H1-B) (human, UniProt P08637 17-208); experiment: as above
T4 construct: Loaded on streptavidin biosensors
T4 sequence (P08637 17-208 F176V limits assumed): as the sequence (P08637 17-208 limits assumed) above, with F160V counted along it

[12] = molecular target: T5, Human FcRn (ACROBiosystems, FCM-H82W4) (human, UniProt P55899 24-297; P61769 21-119); experiment: as above
T5 construct: Loaded on streptavidin biosensors

[13] = molecular target: T6, Human CD32a(H) (Sino Biological, 10374-H27H1-B) (human, UniProt P12318 34-218); experiment: as above
T6 construct: Loaded on streptavidin biosensors
T6 sequence (looked up): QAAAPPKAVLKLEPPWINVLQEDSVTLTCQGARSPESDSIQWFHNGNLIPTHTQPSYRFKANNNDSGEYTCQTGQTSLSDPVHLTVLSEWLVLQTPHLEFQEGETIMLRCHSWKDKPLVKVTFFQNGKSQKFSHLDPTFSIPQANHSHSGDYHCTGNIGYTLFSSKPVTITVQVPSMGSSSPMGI

[14] = molecular target: T4, Human CD16a(V) (Sino Biological, …); experiment: BLI (Octet RED 96), Human CD16a(V) on streptavidin biosensor, 1:1 fit
[15] = molecular target: T3, Human CD16a(F) (Sino Biological, …); experiment: BLI (Octet RED 96), Human CD16a(F) on streptavidin biosensor, 1:1 fit
[16] = molecular target: T5, Human FcRn (ACROBiosystems, FCM-H82W4); experiment: BLI (Octet RED 96), Human FcRn on streptavidin biosensor, steady state analysis
[17] = molecular target: T6, Human CD32a(H) (Sino Biological, …); experiment: BLI (Octet RED 96), Human CD32a(H) on streptavidin biosensor, steady state analysis
[18] = molecular target: T1, Claudin18.2 on cells; experiment: flow cytometry on 293T-Claudin18.2 cells, antibody at 1.5 µg/mL; remark: listed apart in the source
[19] = molecular target: T1, Claudin18.2 on cells; experiment: flow cytometry on 293T-Claudin18.2 cells, antibody at 3 µg/mL; remark: listed apart in the source
[20] = molecular target: T1, Claudin18.2 on cells; experiment: flow cytometry on 293T-Claudin18.2 cells, antibody at 0.375 µg/mL; remark: listed apart in the source
[21] = molecular target: T1, Claudin18.2 on cells; experiment: cell-based or functional assay; remark: listed apart in the source
[22] = molecular target: T7, Claudin18.1 on cells (human, UniProt P56856 1-261); experiment: flow cytometry on 293T-Claudin18.1 cells, antibody at 0.75 µg/mL
T7 construct: whole, on cells

[23] = molecular target: T7, Claudin18.1 on cells; experiment: flow cytometry on 293T-Claudin18.1 cells, antibody at 0.375 µg/mL
[24] = molecular target: T7, Claudin18.1 on cells; experiment: flow cytometry on 293T-Claudin18.1 cells, antibody at 3 µg/mL
[25] = molecular target: T1, Claudin18.2 on cells; experiment: flow cytometry on 293T-Claudin18.2 cells, antibody at 0.75 µg/mL; remark: listed apart in the source
[26] = molecular target: T1, Claudin18.2 on cells; experiment: cell-based or functional assay; remark: listed apart in the source
[27] = molecular target: T7, Claudin18.1 on cells; experiment: flow cytometry on 293T-Claudin18.1 cells, antibody at 1.5 µg/mL

B1: CLD393-C1002-IgG1 (antibody, V domains shown)
VH: QVQLVESGGGVVQPGRSLRLSCAASGFTFSSHDMHWVRQAPGKGLEWVADISDDGSNKNYADSVKGRFTISRDNSKNTLYLQMNSLRAEDAAVYYCAREGLRWFGEFYYSYGMDVWGQGTTVTVSS
VL: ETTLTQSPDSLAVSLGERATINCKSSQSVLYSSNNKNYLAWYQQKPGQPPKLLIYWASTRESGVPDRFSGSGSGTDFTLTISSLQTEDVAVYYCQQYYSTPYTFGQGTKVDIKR
notes: Complete IgG1 made in HEK293 cells; also called CLD387-C1002-IgG1
mean fluorescence intensity [1]: 1.16e+06
mean fluorescence intensity [2]: 1.33e+06
ADCC inhibition rate, %, antibody 0.5 µg/mL, 293T-Claudin18.2 target cells, PBMC effectors, LDH [3]: 22%
ADCC inhibition rate, %, antibody 5 µg/mL, 293T-Claudin18.2 target cells, PBMC effectors, LDH [3]: 49%
ADCC inhibition rate, %, antibody 50 µg/mL, 293T-Claudin18.2 target cells, PBMC effectors, LDH [3]: 64%
mean fluorescence intensity [4]: 5170
mean fluorescence intensity [5]: 4890
mean fluorescence intensity [6]: 406000
mean fluorescence intensity [7]: 4950
mean fluorescence intensity [8]: 852000

B3: CLDQMix-CA808.1-IgG1-VLPLL (antibody)
heavy: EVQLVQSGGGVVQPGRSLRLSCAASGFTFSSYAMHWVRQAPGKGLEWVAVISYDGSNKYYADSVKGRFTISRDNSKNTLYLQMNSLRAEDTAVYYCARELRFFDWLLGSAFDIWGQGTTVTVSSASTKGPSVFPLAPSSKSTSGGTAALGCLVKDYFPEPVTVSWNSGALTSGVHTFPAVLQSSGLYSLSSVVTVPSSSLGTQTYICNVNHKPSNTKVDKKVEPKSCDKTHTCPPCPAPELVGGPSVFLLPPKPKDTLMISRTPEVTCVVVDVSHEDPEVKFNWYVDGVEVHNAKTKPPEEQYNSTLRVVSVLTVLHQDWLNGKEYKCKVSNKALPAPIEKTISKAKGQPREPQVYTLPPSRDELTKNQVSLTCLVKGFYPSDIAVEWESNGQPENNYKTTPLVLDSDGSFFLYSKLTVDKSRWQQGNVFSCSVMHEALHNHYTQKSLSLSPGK
light: DIVMTQSPSSLSASVGDRVTITCRASQGIRNDLGWYQQKPGKAPKLLIYAASSLQSGVPSRFSGSGSGTDFTLTISSLQPEDFATYYCLQDYNYPRTFGQGTKVEIKRTVAAPSVFIFPPSDEQLKSGTASVVCLLNNFYPREAKVQWKVDNALQSGNSQESVTEQDSKDSTYSLSSTLTLSKADYEKHKVYACEVTHQGLSSPVTKSFNRGEC
Kd [9]: 3000 nM
Ratio of KD [10]: 4.75
Ratio of KD [11]: 1.98
Ratio of KD [12]: 1.31
Ratio of KD [13]: 1.37
Kd [14]: 54.1 nM
Kd [15]: 119 nM
Kd [16]: 5.27 nM
Kd [17]: 300 nM

Other lines, results leading:

mean fluorescence intensity [1]: 1.03e+06
mean fluorescence intensity [2]: 1.37e+06
ADCC inhibition rate, %, antibody 0.5 µg/mL, 293T-Claudin18.2 target cells, PBMC effectors, LDH [3]: 15%
ADCC inhibition rate, %, antibody 5 µg/mL, 293T-Claudin18.2 target cells, PBMC effectors, LDH [3]: 47%
ADCC inhibition rate, %, antibody 50 µg/mL, 293T-Claudin18.2 target cells, PBMC effectors, LDH [3]: 48%
mean fluorescence intensity [4]: 6140
mean fluorescence intensity [5]: 5640
mean fluorescence intensity [6]: 308000
mean fluorescence intensity [7]: 5210
mean fluorescence intensity [8]: 787000
B2: CLD393-C1024-IgG1 (antibody, V domains shown)
VH: B1 VH with Q1E, E6Q, H32Y
VL: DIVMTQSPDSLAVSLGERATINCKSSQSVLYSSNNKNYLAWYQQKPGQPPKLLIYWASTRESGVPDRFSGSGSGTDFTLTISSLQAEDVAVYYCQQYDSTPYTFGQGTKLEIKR
notes: Complete IgG1 made in HEK293 cells; also called CLD383-C1024-IgG1

mean fluorescence intensity [18]: 1.2e+06
mean fluorescence intensity [19]: 1.38e+06
mean fluorescence intensity [20]: 535000
ADCC inhibition rate, %, antibody 0.1 µg/mL, 293T-Claudin18.2 target cells, PBMC effectors, LDH [21]: 39.4%
ADCC inhibition rate, %, antibody 1 µg/mL, 293T-Claudin18.2 target cells, PBMC effectors, LDH [21]: 63.6%
ADCC inhibition rate, %, antibody 10 µg/mL, 293T-Claudin18.2 target cells, PBMC effectors, LDH [21]: 57.4%
mean fluorescence intensity [22]: 29400
Kd [9]: 3200 nM
mean fluorescence intensity [23]: 26000
mean fluorescence intensity [24]: 47500
Kd [14]: 107 nM
mean fluorescence intensity [4]: 185000
mean fluorescence intensity [5]: 138000
mean fluorescence intensity [7]: 75600
mean fluorescence intensity [25]: 753000
Kd [15]: 566 nM
Kd [16]: 6.93 nM
Kd [17]: 410 nM
ADCC EC50 (µg/mL), NUGC4 target cells, Jurkat reporter effector cells, Bio-Glo [26]: 1.26 µg/mL
mean fluorescence intensity [27]: 28900
B4: CLDQMIX-CA808.1-IgG1 (antibody)
heavy: not shown
light: B3 light
notes: Complete IgG1 made in HEK293 cells from the scFv clone; also called CLDMIX-CA808.1-IgG1
